For 26 sequences, Kd results are on record in the Immune Epitope Database (IEDB).

A value given as a limit tells only on which side of the number the result lay.

One experiment has as its target HLA-A*11:01. Briefly: IEDB peptide-MHC binding, purified MHC/direct/fluorescence; filed as Kd, often an IC50 or EC50 that approximates it; ≥ and ≤ were set here for values at or beyond the usual limits of such assays.
The target of a further experiment is HLA-A*30:02. Briefly: IEDB peptide-MHC binding, purified MHC/competitive/radioactivity; filed as Kd, often an IC50 or EC50 that approximates it; ≥ and ≤ were set here for values at or beyond the usual limits of such assays.
Another experiment deals with HLA-B*44:02. The description is as above.
For the next experiment, the target named is HLA-B*44:03. The experiment is described as above.
Experiment [1] deals with HLA-A*01:01. As to the kind of experiment: IEDB peptide-MHC binding, purified MHC/direct/fluorescence; filed as Kd, often an IC50 or EC50 that approximates it; ≥ and ≤ were set here for values at or beyond the usual limits of such assays.
The target in another experiment is HLA-A*03:01. Described as above.
A further experiment has as its target HLA-B*15:01. The experiment is described as above. Conditions: source organism: SARS-CoV1.
A further experiment has as its target HLA-B*27:05. The description is as above. Particulars: source organism: SARS-CoV1.
The target in the next experiment is HLA-A*23:01. Briefly: IEDB peptide-MHC binding, purified MHC/competitive/radioactivity; filed as Kd, often an IC50 or EC50 that approximates it; ≥ and ≤ were set here for values at or beyond the usual limits of such assays.
A further experiment deals with HLA-A*24:02. The experiment is described as above.
The target in a further experiment is HLA-A*26:01. The experiment is described as above. Particulars: source organism: SARS coronavirus Tor2.
A further experiment concerns the target HLA-A*29:02. Described as above.
In the next experiment the target is HLA-A*69:01. Briefly: IEDB peptide-MHC binding, purified MHC/direct/fluorescence; filed as Kd, often an IC50 or EC50 that approximates it; ≥ and ≤ were set here for values at or beyond the usual limits of such assays. Conditions: source organism: Homo sapiens.
A further experiment deals with HLA-B*58:01. The description is as above.
A further experiment addresses HLA-B*40:01. As to the kind of experiment: IEDB peptide-MHC binding, purified MHC/competitive/radioactivity; filed as Kd, often an IC50 or EC50 that approximates it; ≥ and ≤ were set here for values at or beyond the usual limits of such assays.
The target of experiment [2] is HLA-A*01:01. The experiment is described as above. Particulars: source organism: Dengue virus 2 Jamaica/1409/1983.
Another experiment has as its target HLA-A*02:02. The description is as above. Conditions: source organism: Vaccinia virus WR.
A further experiment has as its target HLA-A*02:03. The experiment is described as above. Particulars: source organism: Vaccinia virus WR.
A further experiment concerns the target HLA-A*02:06. Described as above. Conditions: source organism: Vaccinia virus WR.
The target of a further experiment is HLA-A*32:01. Described as above. Conditions: source organism: Vaccinia virus WR.
For a further experiment, the target named is HLA-B*07:02. Briefly: IEDB peptide-MHC binding, purified MHC/direct/fluorescence; filed as Kd, often an IC50 or EC50 that approximates it; ≥ and ≤ were set here for values at or beyond the usual limits of such assays. Particulars: source organism: Homo sapiens.
[3] abbreviates: source organism: Dengue virus 3 Martinique/1243/1999.
The mark [4] stands for this setting: source organism: Dengue virus 2 Jamaica/1409/1983.
[5] abbreviates: source organism: SARS coronavirus Tor2.
The mark [6] stands for this setting: source organism: Mycobacterium tuberculosis.
Where [7] appears, read: source organism: Dengue virus 1 Brazil/97-11/1997.
Setting [8] is: source organism: Dengue virus 4 Philippines/H241/1956.
Setting [9] is: source organism: Mammarenavirus whitewaterense.

As usually defined, the Kd is the free concentration of one partner at which half of the binding sites on the other are occupied at equilibrium, for simple one-to-one binding. In the experiment with HLA-A*11:01 (source organism: Bacillus anthracis), ATFLWWIPL returned a Kd of 12.4 nM.
Regarding NGVVTKNGGY, the Kd with HLA-A*30:02 (setting [3]) came to 15500 nM.
LKIVRNMEKY: the Kd with HLA-A*30:02 (setting [4]) came to 55.2 nM.
On to HEEPVPMSTY, for which the Kd was 106 nM in the experiment with HLA-B*44:02 (setting [3]) and 409 nM in the experiment with HLA-B*44:03 (setting [3]).
On to RVDFCGKGY, for which the Kd with HLA-A*01:01 [1] (source organism: SARS-CoV1) is 1000 nM; with HLA-A*03:01 (source organism: SARS-CoV1), 1890 nM; with HLA-A*11:01 (source organism: SARS-CoV1), 7730 nM; with HLA-B*15:01, 1090 nM; in the experiment with HLA-B*27:05, 3890 nM; with HLA-A*23:01 (setting [5]) it was not below 77800 nM. The Kd with HLA-A*24:02 (setting [5]) is not below 77600 nM; with HLA-A*26:01, 7680 nM; in the experiment with HLA-A*29:02 (setting [5]), 9230 nM; with HLA-A*30:02 (setting [5]), 20 nM.
In the case of STDHIPILY, the Kd was 148 nM in the experiment with HLA-A*01:01 [1] (source organism: Homo sapiens); 3150 nM in the experiment with HLA-A*03:01 (source organism: Homo sapiens); 381 nM in the experiment with HLA-A*11:01 (source organism: Homo sapiens); 7420 nM in the experiment with HLA-A*69:01; 2030 nM in the experiment with HLA-B*58:01 (source organism: Homo sapiens).
Turning to YTQLRFPKK, the Kd with HLA-A*03:01 (setting [6]) amounted to 493 nM; with HLA-A*11:01 (setting [6]) it was 4.3 nM.
For EEALKGLPI, the Kd with HLA-B*40:01 (setting [3]) is 3380 nM.
As for KEAKMLLDNI, in the experiment with HLA-B*44:03 (setting [4]), the Kd was found to be 1760 nM.
Regarding AICSAVPVDW, the Kd with HLA-B*44:02 (setting [7]) came to 893 nM.
Regarding VAGGLLTVCY, the Kd in the experiment with HLA-A*01:01 [2] is not below 37000 nM; in the experiment with HLA-A*30:02 (setting [4]) it was 108 nM.
Turning to IISYIILFI, the Kd is 2.78 nM with HLA-A*02:02, 58.7 nM with HLA-A*02:03, 27.1 nM with HLA-A*02:06 and not below 27600 nM in the experiment with HLA-A*32:01.
With EERVILAGPM, the Kd in the experiment with HLA-B*40:01 (setting [4]) stood at 2740 nM; with HLA-B*44:02 (setting [4]) it was 2280 nM.
LTSKELMMA: in the experiment with HLA-A*01:01 [2], the Kd is 5730 nM.
With QETWNRQDL, in the experiment with HLA-B*40:01 (setting [7]), the Kd is 72.8 nM.
Regarding CNLTSAWVMY, in the experiment with HLA-A*30:02 (setting [8]), the Kd stood at 554 nM.
Consider NELPESLETL, for which the Kd with HLA-B*40:01 (setting [8]) is 246 nM.
As for MEFIDGISL, the Kd with HLA-B*40:01 (setting [8]) is 0.18 nM; in the experiment with HLA-B*44:02 (setting [8]), 182 nM; in the experiment with HLA-B*44:03 (setting [8]), 52.9 nM.
For the sequence LTDDMIAAY, the Kd was 7 nM with HLA-A*01:01 [1] (source organism: SARS-CoV1); 19300 nM with HLA-A*03:01 (source organism: SARS-CoV1); 4050 nM with HLA-A*11:01 (source organism: SARS-CoV1); 636 nM in the experiment with HLA-B*15:01; 6940 nM with HLA-B*58:01 (source organism: SARS-CoV1); not below 77800 nM with HLA-A*23:01 (setting [5]). Besides, the Kd with HLA-A*24:02 (setting [5]) is not below 77600 nM; with HLA-A*26:01 it was 1800 nM; in the experiment with HLA-A*29:02 (setting [5]) it was 529 nM; with HLA-A*30:02 (setting [5]), 326 nM.
Turning to YSDPLALKE, in the experiment with HLA-A*01:01 [2], the Kd came to 311 nM.
ILGPPGSVY: the Kd with HLA-A*01:01 [1] (source organism: Homo sapiens) is 6420 nM; with HLA-A*03:01 (source organism: Homo sapiens) it was 852 nM; with HLA-A*11:01 (source organism: Homo sapiens), 1660 nM; in the experiment with HLA-B*07:02 it was not below 33100 nM; in the experiment with HLA-B*58:01 (source organism: Homo sapiens), 326 nM.
Turning to IEKASFIEV, the equilibrium dissociation constant (Kd) with HLA-B*40:01 (source organism: Dengue virus 2 Peru/IQT2913/1996) amounted to 4040 nM.
For the sequence METLLLLGL, the figures for the Kd in the experiment with HLA-B*40:01 (setting [3]), with HLA-B*44:02 (setting [3]) and with HLA-B*44:03 (setting [3]) were 81.3 nM, 8.98 nM and 33.2 nM, respectively.
Take AYTSSDDEI: the Kd came to 1580 nM with HLA-A*23:01 (setting [9]), 4870 nM with HLA-A*24:02 (setting [9]) and 1590 nM with HLA-A*29:02 (setting [9]).
For the sequence DEDNPYKTW, the values for the Kd with HLA-B*44:02 (setting [7]) and with HLA-B*44:03 (setting [7]) were 519 nM and 640 nM, respectively.
Turning to IESQKNGSW, the values for the Kd with HLA-B*44:02 (setting [3]) and with HLA-B*44:03 (setting [3]) were 452 nM and 166 nM, respectively.
